Results: patent US11505583B2, “Proteins for the treatment of epithelial barrier function disorders” (Second Genome, Inc., priority 2018, dated 2022)
Positions count from the first letter of the chain named. Names may count otherwise.

Columns and labels:
[1] = system: C57BL/6 mice given 2.5% DSS in drinking water; test: Concurrent (prophylactic) DSS model of inflammatory bowel disease (Example 4, Example 13A); type: in vivo, mouse; conditions: for 4KDa-FITC signal in serum / Colon length: vs DSS+vehicle; for Colon length: FIG. 22A
Description: Specifically, the mice in Examples 4 and 5 were treated with dextran sodium sulfate (DSS), a chemical known to induce intestinal epithelial damage and thereby reduce intestinal barrier integrity and function. DSS mice are well-accepted models of colitis. In Example 4, mice were treated with SG-11 protein approximately concurrent with (6 hours prior to) administration of DSS. In Example 5, mice were treated with DSS for 6 days prior to treatment with SG-11 protein.
The graphs presented in Example 4 represent data pooled from 3 independent experiments, each using 10 mice (n=30). The SG-11 protein used in these experiments was the mature protein (no signal peptide) without an N-terminal tag and comprising the amino acid sequence of SEQ ID NO:3. For 2 experiments, the SG-11 protein consisted of SEQ ID NO:5; for the third experiment, the SG-11 protein consisted of SEQ ID NO:7.
Eight-week old C57BL/6 mice were housed 5 animals were cage and given food and water ad libitum for 7 days. Following the 7-day acclimation period, treatments were initiated concurrently with addition of 2.5% DSS to the drinking water. […] The mice were treated with 2.5% dextran sodium sulfate (DSS) in their drinking water for 6 days. Treatments were continued with SG-11 or Gly2-GLP2 twice a day (b.i.d.) in the morning and evening (every 8 and 16 hr) with i.p. injections at 50 nmoles/kg. Fresh 2.5% DSS drinking water was prepared every 2 days.
On day six, mice were fasted for four hours and then orally gavaged with 600 mg/kg 4KDa dextran labeled with fluorescein isothiocyanate (FITC) [4KDa-FITC]. One hour after the 4KDa-FITC gavage mice were euthanized, blood was collected and FITC signal was measured in serum. […] The magnitude of 4KDa-FITC dextran translocation observed for SG-11 was similar to the positive control of Gly2-GLP2. Results are shown in FIG. 3, and are presented as mean±SEM. The graph in FIG. 3 represents data pooled from 3 independent experiments (n=30).
SG-11 was also assessed for its effects on the levels of LPS binding protein (LBP) in the blood of the DSS animal with and without SG-11 administration. LPS binding protein (LBP), which has been linked to clinical disease activity in subjects with inflammatory bowel disease, was also measured by ELISA in the serum of mice tested in the DSS model described in Example 4. […] Results are shown in FIG. 4, and are presented as mean±SEM. The graph in FIG. 4 represents data pooled from 3 independent experiments (n=30).
Body weight was measured daily from mice included in the DSS model described in this Example. Percent change from starting weight on day 0 was determined for each mouse. […] Weight loss in mice treated with SG-11 at day 6 was similar to weight loss observed with Gly2-GLP2. The graph in FIG. 5 represents data pooled from two independent experiments (n=20).
Gross pathology observations were made in mice included in the concurrent DSS model performed in this Example. […] No differences in clinical scores were observed between mice given DSS and treated with either Gly2-GLP2 or SG-11. The scoring system used was: (0)=no gross pathology, (1)=streaks of blood visible in feces, (2)=completely bloody fecal pellets, (3) bloody fecal material visible in cecum, (4) bloody fecal material in cecum and loose stool, (5)=rectal bleeding. The graph in FIG. 6 represents data pooled from 3 independent experiments (n=30).
Colon length was measured in mice included in the DSS model described in Example 7. […] The graphs in FIGS. 8A and 8B represent data pooled from 3 independent experiments (n=30). Data are graphed as mean±SEM and are pooled from three independent experiments (n=30). Statistical analysis was performed by a one-way ANOVA followed by a Fisher's LSD multiple comparisons test.
Briefly, in the first DSS mouse model (Example 13A), mice were treated on day zero with test compound intraperitoneally (i.p.) and 6 hours later DSS treatment was initiated. […]

[2] = Stability in storage buffer formulations by analytical SEC (Example 11); type: physicochemical
Description: Although SG-11 protein is very stable at high temperature, forming aggregations at 37° C. in a week could be the problem at the downstream processing stage. Deamidation of asparagine residues found by LC/MS/MS are also a risk factor. In order to improve the manufacturability of a protein comprising SEQ ID NO:3 or variants thereof, the protein depicted as SG-11 (SEQ ID NO:7) was mutated to contain the following 4 substitutions: N53S, N83S, C147V and C151S. This variant with 4 substitutions is designated as SG-11V5, provided herein as SEQ ID NO:19. The stability of purified SG-11 and SG-11V5 was tested in different storage buffer formulations. SG-11V5 (SEQ ID NO:19) has about 98.3% sequence identity to SEQ ID NO:7.
Specifically, purified SG-11 (SEQ ID NO:7) was incubated in pH 5.2 (FIGS. 15A, 15B and 15C), pH 7.0 (FIGS. 15D, 15E and 15F) and pH 8.0 (FIGS. 15G, 15H and 15I). Effect of additives was also tested at the 3 different pH conditions: 150 mM NaCl (FIGS. 15A, 15D and 15G); 150 mM NaCl and 100 mM arginine (FIGS. 15B, 15E and 15H); and 150 mM NaCl and 0.5 M sorbitol (FIGS. 15C, 15F and 15I). Stability was analyzed by analytical SEC. Arrow heads indicate the retention time of the monomeric form.
SG-11V5 (SEQ ID NO:19) was incubated in pH 5.2 (FIGS. 16A, 16B and 16C), pH 7.0 (FIGS. 16D, 16E and 16F) and pH 8.0 (FIGS. 16G, 16H and 16I). Effect of additives was also tested at the 3 different pH conditions: 150 mM NaCl (FIGS. 16A, 16D and 16G); 150 mM NaCl and 100 mM Arg (FIGS. 16B, 16E and 16H); and 150 mM NaCl and 0.5 M sorbitol (FIGS. 16C, 16F and 16I). Stability was analyzed by analytical SEC. Arrow heads indicate the retention time of the monomeric form.

B1: SG-11 (SEQ ID NO:7): Recombinant SG-11 with N-terminal methionine, 233 amino acids, no N-terminal tag (protein)
chain: MLEGEESVVYVGKKGVIASLDVETLDQSYYDETELKSYVDAEVEDYTAEHGKNAVKVESLKVEDGVAKLKMKYKTPEDYTAFNGIELYQGKVVASLAAGYVYDGEFARVEEGKVVGAATKQDIYSEDDLKVAIIRANTDVKVDGEICYVSCQNVKLTGKDSVSIRDGYYLETGSVTASVDVTGQESVGTEQLSGTEQMEMTGEPVNADDTEQTEAAAGDGSFETDVYTFIVYK
4KDa-FITC signal in serum ([1]; Example 13A, 50 nmoles/kg i.p. twice a day, p=0.04, FIG. 18A): significantly reduced the 4KDa-FITC signal
Colon length ([1]; Example 13A): significant increase in the colon length
Aggregate formation (analytical SEC) ([2]; 100 mM arginine at pH 7.0 (150 mM NaCl), FIG. 15): greatly suppressed
Behaviour at pH 5.2 [2]: precipitated

B2: SG-11V5: SG-11 variant SEQ ID NO:19 comprising N53S, N83S, C147V, C151S with respect to SEQ ID NO:7 (protein)
chain: B1 chain with N53S, N83S, C147V, C151S
Gross pathology score (0-5) ([1]; Example 13, 160 nmoles/kg, dose dependent effect, p<0.002, FIG. 21): significant improvement
4KDa-FITC signal in serum ([1]; Example 13, FIG. 18B, p=0.21): also reduced the 4KDa-FITC signal, although the difference was not reach statistical significance
LBP in serum (ELISA) ([1]; Example 13A, 158 nmoles/kg i.p. twice a day, p=0.003, FIG. 19A): significant reduction in LBP production
Body weight ([1]; Example 13A, 158 nmoles/kg, day 6, FIG. 20A): significant improvement in body weight
Colon length ([1]; Example 13A): significant increase in the colon length
Dose dependence of effect on colon length ([1]; prophylactic DSS model, 16, 50 and 158 nmoles/kg): no dose-dependent effect on colon length
Aggregation (analytical SEC) ([2]; all conditions tested: pH 5.2, 7.0, 8.0, 150 mM NaCl ± 100 mM arginine or 0.5 M sorbitol, FIG. 16): did not show large amount of aggregation
Behaviour at pH 5.2 [2]: precipitated
Stability compared with SG-11 ([2]; pH 7.0 and pH 8.0): improved stability
Small aggregation peak at 1.34 mL (analytical SEC) ([2]; with 100 mM arginine or 0.5 M sorbitol): suppressed
